Measurements taken from patent US20260258115A1 (MAPP BIOPHARMACEUTICAL, published 2026).
Positions count from the first letter of the chain named.

B1: ADI-19491 (antibody, V domains shown)
VH: QVQLVQSGPTLVKPTQTLTLTCTFSGFSLSTSGVGVGWIRQPPGKALEWLALIYWDDDKRYSPSLKSRLTITKDTSKNQVVLTMTNMDPVDTATYYCAHRRATTVTTGYFDYWGQGTLVTVSS
VL: QSVLTQPPSVSGAPGQRVTISCTGSSSNIGAGYDVHWYQQLPGTAPKLLIYGNSNRPSGVPDRFSGSKSGTSASLAITGLQAEDEADYYCQSYDSSLSGHYVFGTGTKVTVL
notes: full-length IgG
B2: ADI-19469 (antibody, V domains shown)
VH: QVQLQESGPGLVKPSETLSLTCAVSGYSISSGYYWGWIRQPPGKGLEWIGSIYHSGSTYYNPSLKSRVTISVDTSKNQFSLKLSSVTAADTAVYYCARWTVMYYFDYWGQGTLVTVSS
VL: EIVMTQSPATLSLSPGERATLSCRASQSVSSYLAWYQQKPGQAPRLLIYDASNRATGIPARFSGSGSGTDFTLTISSLEPEDFAVYYCQQRSNWPTFGGGTKLEIK
notes: full-length IgG
B3: ADI-19468 (antibody, V domains shown)
VH: EVQLVESGPGLVKPSETLSLTCTVSGGSISSSSYYWGWIRQPPGKGLEWIGSIYYSGSTYYNPSLKSRVTISVDTSKNQFSLKLSSVTAADTAVYYCARRDGYNYGWFDPWGQGTLVTVSS
VL: NFMLTQPHSVSESPGKTVTISCTGSSGSIASNYVQWYQQRPGSAPTTVIYEDNQRPSGVPDRFSGSIDSSSNSASLTISGLKTEDEADYYCQSYDSSNVVFGGGTKVTVL
notes: full-length IgG
B4: ADI-19474 (antibody, V domains shown)
VH: QVQLVQSGAEVKKPGESLKISCKGSGYSFTSYWIGWVRQMPGKGLEWMGIIYPGDSDTRYSPSFQGQVTISADKSISTAYLQWSSLKASDTAMYYCARPYSGSYYAFDIWGQGTTVTVSS
VL: B3 VL with G24R, A44S, V99Q, V107L
notes: full-length IgG
B5: ADI-19471 (antibody, V domains shown)
VH: EVQLVESGGGLVQPGGSLRLSCSASGFTFSSYAMHWVRQAPGKGLEYVSAISSNGGSTYYADSVKGRFTISRDNSKNTLYLQMSSLRAEDTAVYYCVKADQGSSGWFPDYWGQGTLVTVSS
VL: B3 VL with G24R, A44S, V99W, V107L
notes: full-length IgG
B6: ADI-24837 (antibody, V domains shown)
VH: QVQLQESGPGLVKPSETLSLTCTVSGGSISSYYWSWIRQPPGKGLEWIGYIYYSGSTNYNPSLKSRVTISVDTSKNQFSLKLSSVTAADTAVYYCARAIYYYDSSGYYYVGDAFDIWGQGTTVTVSS
VL: QSVLTQPPSVSAAPGQKVTISCSGSSSNIGNNYVSWYQQLPGTAPKLLIYENNKRPSGIPDRFSGSKSGTSATLGITGLQTGDEADYYCGTWDSSLSAGVFGGGTKLTVL
B7: ADI-19473 (antibody, V domains shown)
VH: EVQLVESGAEVKKPGESLKISCKGSGYSFTSYWIGWVRQMPGKGLEWMGIIYPGDSDTRYSPSFQGQVTISADKSISTAYLQWSSLKASDTAMYYCARLIAAAGIDYWGQGTLVTVSS
VL: NFMLTQPHSVSESPGKTVTISCTRSSGSIASNYVQWYQQRPGSSPTTVIYEDNQRPSGVPDRFSGSIDSSSNSASLTISGLKTEDEADYYCQSYDSSNIWVFGGGTKVTVL
notes: full-length IgG
B8: ADI-19492 (antibody, V domains shown)
VH: QVQLVQSGAEVKKPGESLKISCKGSGYRFTSYWIGWVRQMPGKGLEWMGIIYPGDSDTRYSPSFQGQVTISADKSISTAYLQWSSLKASDTAMYYCARSGSHYAFDLWGQGTMVTVSS
VL: B7 VL with S28N, I49L, I99P, V108L
notes: full-length IgG
B9: ADI-24843 (antibody, V domains shown)
VH: EVQLVESGPGLVKPSQTLSLTCTVSGGSISSGDYYWSWIRQPPGKGLEWIGYIYYSGSTYYNPSLKSRVTISVDTSKNQFSLKLSSVTAADTAVYYCARESIVGAVDYWGQGTLVTVSS
VL: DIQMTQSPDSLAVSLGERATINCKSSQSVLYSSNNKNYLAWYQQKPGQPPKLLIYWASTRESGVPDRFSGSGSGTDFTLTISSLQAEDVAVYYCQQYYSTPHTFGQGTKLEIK
notes: full-length IgG; also called Ab 405

target: T1, RSV postfusion F (postF), subtype A (respiratory syncytial virus subtype A, UniProt P03420 26-513); assay: BLI
T1 construct: also called Postfusion subtype A; F deltaFP

Row | Binder | binding result
1 | B1 | no binding
2 | B2 | no binding
3 | B3 | no binding
4 | B4 | no binding
5 | B5 | no binding
6 | B6 | no binding
7 | B7 | no binding
8 | B8 | no binding
9 | B9 | no binding
